Our source for the percent dimer (GF-HPLC, first week and stoichiometry N values is article PMC10164616.

The experiment concerns the target monomeric receptor binding domain from SARS-CoV-2 Spike protein, RBD (319-541)-His6 (SARS-CoV-2) (UniProt P0DTC2). Nature of the experiment: SEC. On the technique in general: Size exclusion chromatography separates by hydrodynamic size, large species first.

“monomeric receptor binding domain from SARS-CoV-2 Spike protein, RBD (319-541)-His6 (from UniProt P0DTC2 319-541) (domain or fragment)” yielded a percent dimer (GF-HPLC, first week at 37 °C) of 14% and a stoichiometry N of 2.

As usually defined, the stoichiometry N is the number of molecules, sites or subunits per partner or assembly.
